Drawing on the supplement of paper PMC10567573, this text covers protein stability index for 94 variants.

Sequences and labels used below:
B1: DLC1 (parent)
chain: KRSWEEHVTHWMGQPFNSDDRNTA
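Further: lentivirally expressed fusions sorted by FACS into six bins by GFP to DsRed ratio, PSI derived from sequencing read proportions per bin multiplied by bin number.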

The variants in this series derive from B1. Description: protein stability index of a GFP-peptide fusion (GPS, HEK-293T) (PSI 1-6); higher = more stable. To be noted: c terminus: a fixed tail appended.
As for KRSWEEHVTHWMGQPFMSDDRNTA [N17M], the protein stability index worked out at 2.15.

Consider KRSWEEHVTHWMGQPFWSDDRNTA [N17W], for which the protein stability index came out at 2.77.

Take KRSWEEHVTHWMGQPFHSDDRNTA [N17H]: the protein stability index worked out at 2.73.

As for KRSWEEHVTHWMGQPFRSDDRNTA [N17R], the protein stability index turned out to be 1.64.

Consider KRSWEEHVTHWMGQPFQSDDRNTA [N17Q], for which the protein stability index worked out at 3.12.

In the case of KRSWEEHVTHWMGQPFKSDDRNTA [N17K], the protein stability index turned out to be 2.1.

For the variant KRSWEEHVTHWMGQPFLSDDRNTA [N17L], the protein stability index is 2.44.

As to KRSWEEHVTHWMGQPFCSDDRNTA [N17C], the protein stability index was 2.23.

Take KRSWEEHVTHWMGQPFFSDDRNTA [N17F]: the protein stability index turned out to be 2.77.

Regarding KRSWEEHVTHWMGQPFSSDDRNTA [N17S], the protein stability index worked out at 2.63.

Take KRSWEEHVTHWMGQPFESDDRNTA [N17E]: the protein stability index came to 2.52.

Consider KRSWEEHVTHWMGQPFPSDDRNTA [N17P], for which the protein stability index was determined as 2.73.

As to KRSWEEHVTHWMGQPFISDDRNTA [N17I], the protein stability index worked out at 2.38.

KRSWEEHVTHWMGQPFTSDDRNTA [N17T]: the protein stability index came out at 3.4.

On to KRSWEEHVTHWMGQPFASDDRNTA [N17A], for which the protein stability index is 2.64.

With KRSWEEHVTHWMGQPFGSDDRNTA [N17G], the protein stability index is 2.44.

Consider KRSWEEHVTHWMGQPFYSDDRNTA [N17Y], for which the protein stability index amounted to 2.36.

As to KRSWEEHVTHWMGQPFVSDDRNTA [N17V], the protein stability index amounted to 2.26.

Turning to KRSWEEHVTHWMGQPFDSDDRNTA [N17D], the protein stability index was 3.03.

Regarding KRSWEEHVTHWMGQPNNSDDRNTA [F16N], the protein stability index worked out at 3.62.

Turning to KRSWEEHVTHWMGQPRNSDDRNTA [F16R], the protein stability index worked out at 2.27.

For the variant KRSWEEHVTHWMGQPKNSDDRNTA [F16K], the protein stability index was 2.97.

Turning to KRSWEEHVTHWMGQPTNSDDRNTA [F16T], the protein stability index was 2.37.

On to KRSWEEHVTHWMGQPWNSDDRNTA [F16W], for which the protein stability index came to 2.35.

Turning to KRSWEEHVTHWMGQPVNSDDRNTA [F16V], the protein stability index was 3.34.

Turning to KRSWEEHVTHWMGQPMNSDDRNTA [F16M], the protein stability index is 2.94.

On to KRSWEEHVTHWMGQPLNSDDRNTA [F16L], for which the protein stability index was 3.55.

For KRSWEEHVTHWMGQPSNSDDRNTA [F16S], the protein stability index stood at 3.07.

KRSWEEHVTHWMGQPYNSDDRNTA [F16Y]: the protein stability index was 2.69.

Consider KRSWEEHVTHWMGQPPNSDDRNTA [F16P], for which the protein stability index worked out at 2.68.

In the case of KRSWEEHVTHWMGQPQNSDDRNTA [F16Q], the protein stability index is 2.41.

Consider KRSWEEHVTHWMGQPFNSDTRNTA [D20T], for which the protein stability index was 2.75.

For the variant KRSWEEHVTHWMGQPFNSDMRNTA [D20M], the protein stability index was 1.91.

Turning to KRSWEEHVTHWMGQPFNSDGRNTA [D20G], the protein stability index came to 2.43.

On to KRSWEEHVTHWMGQPFNSDSRNTA [D20S], for which the protein stability index is 1.91.

On to KRSWEEHVTHWMGQPFNSDYRNTA [D20Y], for which the protein stability index stood at 1.77.

KRSWEEHVTHWMGQPFNSDARNTA [D20A]: the protein stability index was 3.41.

On to KRSWEEHVTHWMGQPFNSDIRNTA [D20I], for which the protein stability index turned out to be 2.54.

For the variant KRSWEEHVTHWMGQPFNSDRRNTA [D20R], the protein stability index is 2.66.

On to KRSWEEHVTHWMGQPFNSDERNTA [D20E], for which the protein stability index came to 2.87.

As for KRSWEEHVTHWMGQPFNSDHRNTA [D20H], the protein stability index is 2.48.

On to KRSWEEHVTHWMGQPFNSDNRNTA [D20N], for which the protein stability index was found to be 2.59.

For the variant KRSWEEHVTHWMGQPFNSDVRNTA [D20V], the protein stability index is 2.02.

Turning to KRSWEEHVTHWMGQPFNSDPRNTA [D20P], the protein stability index amounted to 2.76.

As for KRSWEEHVTHWMGQPFNSDKRNTA [D20K], the protein stability index was determined as 2.51.

As to KRSWEEHVTHWMGQPFNSDQRNTA [D20Q], the protein stability index was found to be 3.05.

Consider KRSWEEHVTHWMGQPFNSDCRNTA [D20C], for which the protein stability index was found to be 2.19.

As to KRSWEEHVTHWMGQPFNSDFRNTA [D20F], the protein stability index turned out to be 2.29.

As for KRSWEEHVTHWMGQPFNSDLRNTA [D20L], the protein stability index worked out at 2.48.

Take KRSWEEHVTHWMGQPFNSDWRNTA [D20W]: the protein stability index worked out at 1.59.

KRSWEEHVTHWMGQPFNSPDRNTA [D19P]: the protein stability index is 2.73.

For the variant KRSWEEHVTHWMGQPFNSEDRNTA [D19E], the protein stability index worked out at 2.76.

In the case of KRSWEEHVTHWMGQPFNSNDRNTA [D19N], the protein stability index was determined as 2.69.

Consider KRSWEEHVTHWMGQPFNSQDRNTA [D19Q], for which the protein stability index worked out at 2.65.

Regarding KRSWEEHVTHWMGQPFNSSDRNTA [D19S], the protein stability index turned out to be 2.6.

Consider KRSWEEHVTHWMGQPFNSWDRNTA [D19W], for which the protein stability index is 2.64.

Turning to KRSWEEHVTHWMGQPFNSMDRNTA [D19M], the protein stability index worked out at 2.88.

On to KRSWEEHVTHWMGQPFNSKDRNTA [D19K], for which the protein stability index amounted to 2.61.

For KRSWEEHVTHWMGQPFNSVDRNTA [D19V], the protein stability index was 1.97.

In the case of KRSWEEHVTHWMGQPFNSGDRNTA [D19G], the protein stability index was 2.25.

For KRSWEEHVTHWMGQPFNSFDRNTA [D19F], the protein stability index amounted to 1.85.

As for KRSWEEHVTHWMGQPFNSYDRNTA [D19Y], the protein stability index was found to be 1.43.

Regarding KRSWEEHVTHWMGQPFNSLDRNTA [D19L], the protein stability index turned out to be 2.12.

KRSWEEHVTHWMGQPFNSRDRNTA [D19R]: the protein stability index amounted to 2.54.

As for KRSWEEHVTHWMGQPFNSADRNTA [D19A], the protein stability index was determined as 2.67.

With KRSWEEHVTHWMGQPFNSHDRNTA [D19H], the protein stability index stood at 2.29.

Regarding KRSWEEHVTHWMGQPFNSIDRNTA [D19I], the protein stability index worked out at 3.12.

Regarding KRSWEEHVTHWMGQPFNSTDRNTA [D19T], the protein stability index was 2.4.

Take KRSWEEHVTHWMGQPFNYDDRNTA [S18Y]: the protein stability index came out at 2.26.

Turning to KRSWEEHVTHWMGQPFNCDDRNTA [S18C], the protein stability index was determined as 2.34.

Turning to KRSWEEHVTHWMGQPFNLDDRNTA [S18L], the protein stability index was determined as 2.03.

Turning to KRSWEEHVTHWMGQPFNRDDRNTA [S18R], the protein stability index stood at 2.1.

With KRSWEEHVTHWMGQPFNTDDRNTA [S18T], the protein stability index worked out at 3.21.

As to KRSWEEHVTHWMGQPFNQDDRNTA [S18Q], the protein stability index was 3.02.

As for KRSWEEHVTHWMGQPFNVDDRNTA [S18V], the protein stability index amounted to 2.31.

On to KRSWEEHVTHWMGQPFNFDDRNTA [S18F], for which the protein stability index was 2.27.

In the case of KRSWEEHVTHWMGQPFNPDDRNTA [S18P], the protein stability index was determined as 3.11.

With KRSWEEHVTHWMGQPFNEDDRNTA [S18E], the protein stability index was 2.97.

In the case of KRSWEEHVTHWMGQPFNMDDRNTA [S18M], the protein stability index worked out at 2.92.

Consider KRSWEEHVTHWMGQPFNDDDRNTA [S18D], for which the protein stability index turned out to be 3.1.

On to KRSWEEHVTHWMGQPFNADDRNTA [S18A], for which the protein stability index came to 3.48.

For the variant KRSWEEHVTHWMGQPFNKDDRNTA [S18K], the protein stability index worked out at 3.12.

Regarding KRSWEEHVTHWMGQPFNWDDRNTA [S18W], the protein stability index came to 2.01.

Regarding KRSWEEHVTHWMGQPFNHDDRNTA [S18H], the protein stability index came to 2.66.

As to KRSWEEHVTHWMGQPFNGDDRNTA [S18G], the protein stability index was determined as 2.76.

Take KRSWEEHVTHWMGQPFNIDDRNTA [S18I]: the protein stability index was 2.61.

Regarding KRSWEEHVTHWMGQPFNSDDFNTA [R21F], the protein stability index was 1.95.

Turning to KRSWEEHVTHWMGQPFNSDDGNTA [R21G], the protein stability index came to 3.17.

Turning to KRSWEEHVTHWMGQPFNSDDINTA [R21I], the protein stability index turned out to be 2.61.

Regarding KRSWEEHVTHWMGQPFNSDDHNTA [R21H], the protein stability index turned out to be 2.47.

For the variant KRSWEEHVTHWMGQPFNSDDANTA [R21A], the protein stability index stood at 2.64.

As for KRSWEEHVTHWMGQPFNSDDENTA [R21E], the protein stability index came out at 2.99.

On to KRSWEEHVTHWMGQPFNSDDCNTA [R21C], for which the protein stability index amounted to 2.85.

As for KRSWEEHVTHWMGQPFNSDDDNTA [R21D], the protein stability index was determined as 2.89.
